According to the DeepSol protein solubility set:

test: soluble on expression in E. coli; label from the status in PepcDB or PDB records

Sequence	soluble on expression in E. coli
MSLRASDDKALQYAIAEITEIATGFGLDFYPMRYEICPAEIIYTFGAYGMPTRFSHWSFGKQFFRMKLQYDLGLSKIYELVINSDPCYAFLLDTNSLIQNKLIVAHVLAHCDFFKNNIRFSNTKRDMVESMSATAERVKAYEHKYGKEEVETFLDAVLAIQEHIDPSLMRPKLAWSIDDLEEEEVEKKKASQYDDLWNLDNRNKKQERSNVRKKKKIPPQPEKDLLLFIEEYSRELEDWQRDILTMMREEMLYFWPQLETKIMNEGWASFWHQRILREMDLTSDEAIEFAKLNAGVVQPSKTSINPYYLGIKMFEDIEERYNNPTEEMKRRGVKPGSGRDKIFEVREIEWDVSFLRNYLNKDLVMREDMYLFQRQGKEYKVIDKEWEHVRDQLVNMRTNGGFPYLVVEDGDYLKNGELYIKHSYEGIELDLKYLEKVLPYLHQLWGRTVHMESIVESKGVVFSYDGKMVHRKYVEGHHHHHH	not soluble
MSLSTSPKPSPIPSPVLGQKPNASQSLLAWCREVTKNYRGVKITNFTTSWRNGLSFCAILHHFRPDLIDYKSLNPQDIKENNKKAYDGFASIGISRLLEPSDMVLLAIPDKLTVMTYLYQIRAHFSGQELNVVQIEENSSKSTYKVGNYETDTNSSVDQEKFYAELSDLKREGHHHHHH	soluble
MSPTSRPATGASLSAARRSREVADTVGGPVVDVLVVGLGATGAGAALDAAARGLGVVAVDAHDLAFGTSRWSSKLIHGGLRYLASGQLDVAHESAVERGVLMERTAPHLVRAQPFVLPLTPLVSRGQGALAWAGFRAGDTLRLAARTARATLPAPRRLSAVETRHLAPALRSDRLRGGLLSWDGRLADDARLVTALARTAAARGARILTRVRALELTGSGARVRDETTGEEGVIRARAVVNASGVWAGDLVDGIRIRPSRGTHLVLRSDRLGPLPAGLHVPIPGETNRFVLVLPQDDGRVYVGLTDEPVDGDVPDVPEVPETDVGFLLDVLGSVLDVPVHREDVVGAFAGLRPLLDTAPSDRPGAAPRTADVSRRHAVLTSSEGVITVVGGKLTTYRRMAEDAVDAAVAARGLAAGPSPTAALPLVGAAAPHTLAGVRAPRRLVRRYGTEAPAVQALASREPCLAERVLPGHPVTGAELVWALRHEGALDEADLLDRRTRVGLVPEDRAAALGAVRDLVGEVTADPRLEHHHHHH	not soluble
MGSDKIHHHHHHMKSPTPALMLQGTSSNAGKSILTAAFCRILLQDGYRVAPFKAQNMALNSHVTADGLELGRAQAVQAAACRLDVDVRMNPVLLKPNSDTGSQVVVMGRPVGNMRVREYMAYKPVAFDAARAAYDSLAADVDVMVLEGAGSPAEVNLKAHDIVNMAMARHAEAKVLLVGDIDRGGVFASLVGTMELLDPWERDLVAGFVLNKFRGDATLLSPAYDVVTGRTGKPFLGVVPWLHDLGLPDEDSVSFRETLAGRAPDVPAGGGMLDIVLVDLPHISNFTDLDALRREPDVAVRVVRSPEQLGSPDAIILPGSKNTLGDLAALRSRGMAEALCALRSAEGGHLGPVIVGICGGFQMMGRFLADPQGVESDHACTEAGLGLLPVTTEMGSAKVLRRTSAKTVSGWCGAGVAAGLMPGTGGGHGGAEVCPGEGYAVHGYEIHHGVTTPDAGGGAVLVCLHESDGSPAGWTTPDGQVWGTYLHGVFDADGFRRGWLDALRVRRGLEPVGRVVARYDLDPALDRLADVVREAVDMGHIYSVLGLSPKGRRQT	not soluble
KYNMGNANYRIQKELHNFLNNPPINCTLDVHPNNIRIWIVKYVGLENTIYANEVYKLKIIFPDDYPLKPPIVYFLQKPPKHTHVYSNGDICLSLLGDDYNPSLSISGLVLSIISMLSSAKEKKLP	soluble
MGSDKIHHHHHHAQIKFRNHSVSVVSLNYDASNKTMLFRQGEEMMEMTNPAQVDTVIIGKRKFVPVGRGFYEVVCRKEGVVYIDWLLKDVNIGSKGALGTVTQGSVKNLQMSDLGLNGTEMYTPYERQKIGSTEVYRRKNDNTYYIKVEGKLEKVKSLKHLEKIFIGHKDEIRKFAKDHKIDMKDILDVFSILDYCMELEQ	not soluble
KLIAATGCPTGIAHTFMAQEALEQAAKEKGVSIKVETHGQVGVENELTPAEIAGAKAVIIAADKDVQAERFAGKRVIEVSVADGIKKADQLIADALAGKGQIK	not soluble
MSLEQPGFKLRAVTIHFEASADVDSIEDAVFKAKEAIDRLTAEKGVEVWSLRAVLTPGESVADSLGRVAELEPLVEEEGVFINLGLHNASADDWEAVSGIVESGFFLSFALENGTWEEARSYSKLLHRLADKSPDLAVHIGFNPLGTHILTPYFPLATSPGEQRTVTVALLYPRYLLESFRKGGLQAVIDSMVDAAQLSGEYGKAVAKDVEGSFAGVDLSISPWMEESSLALVEEVGGVRLPEPGFAYGLRLVNEAIAAAASKTGYAVGFNEVQLPVAEDSKLKVRVAELETSARDLLRLSGVCLAGLDMAVIPASLDGVAGLLLEARAYSRAKGSIVGVRLIPLDGVEPGDEVFLKRFGEVPVIPIEGHHHHHH	not soluble
MDDVLRRNPLFAALDDEQSAELRASMSEVTLARGDTLFHEGDPGDRLYVVTEGKVKLHRTSPDGRENMLAVVGPSELIGELSLFDPGPRTATGTALTEVKLLALGHGDLQPWLNVRPEVATALLRAVARRLRKTNDAMSDLVFSD	soluble
EKKPYIISNVGMTLDGKLATINNDSRISCEEDLIRVHKIRANVDGIMVGIGTVLKDDPRLTVHKIKSDRNPVRIVVDSKLRVPLNARVLNKDAKTIIATTEDTNEEKEKKIKILEDMGVEVVKCGRGKVDLKKLMDILYDKGIKSILLEGGGTLNWGMFKEGLVDEVSVYIAPKIFGGKEAPTYVDGEGFKTVDECVKLELKNFYRLGEGIVLEFKVKK	soluble
MGSDKIHHHHHHMFWFKNALIYRLTKSLDWSVENLQSQLQQCAYSPCQQSDMSRFGWSNPLRESESLSFCVGKQLLLVAHKEEKILPAQVIKRELEERIEQLEQKENRKLKKIEKQALKDDIVATLLPRAFSKNQHTALWIDTENNLIYIDTASTKRAEDCLALLRKSLGSLPVVPLAFANEPSLVMTNWVKENSPQWLTVLEEAELKGSQDQAVIRCKQQVLDSEEMIGLLNSGKYITNLSLNWEEHLSFTLNEDASLKRLKFADQIREQNDDISKEDFAQRFDADFVLMTGILAKLTENLLDEFGGEKERL	not soluble
KEPEMRPLGAYDTEELIPVLDYLDQQKINYKLDGNTVSVESSEYNSIKLGMVRSGVNQATEAGDDILLQDMGFGVSQRLEQERLKLSRERQLAQAIEEMKQVRKARVLLALPKHSVFVRHNQEASASVFLTLSTGANLKQQEVDSIVDMVASAVPGMKTSRITVTDQHGRLLSSGSQDPASAARRKEQELERSQEQALREKIDSVLLPILGFGNYTAQVDIQMDFSAVEQTRKRFDPNTPSTRSEYALEDYNNGNMVAGIPGALSNQPPADASIPQDVAQMKDGSVMGQGSVRKESTRNFELDTTISHERKQTGTVARQTVSVAIKDRRQVNPDTGEVTYTPMSEGEINAIRQVLIGTVGFDQSRGDLLNVLSVKFAEPETEQLVDQPIWEHPNFND	not soluble
MGSDKIHHHHHHEVRSTFINFFREKKEHTYVHSSSVIPHDDPTLLFANAGMNQFKPLFLGIADPNSDLAKLKRAVNTQKCIRAGGKHNDLDDVGKDVYHHTYFEMLGNWSFGDYFKKEIITWAWELLTTVYGIPAERLYVSVFGGDEANGVPADSEARDIWRSVGVPDERILNFGMKDNFWEMGDVGPCGPCSEIHYDRIGNRDASHLVNADDPMVVEIWNLVFIQFNREEGGVLKPLPAKHIDCGLGLERLIAVMQDKTSNYDTDIFQPIFEAIHKGSGVRAYTGFIGDEDKDGVDMAYRVVADHVRTLTIALSDGGRPDNSGRGYVLRRILRRGVRYASEKLNAQPGFFASLVPVVISILGETFPELSRDPVTVMDIINDEEKQFLKTLSRGRVLFQRAVQSLPEGTMTFPGDVSWRLYDTYGFPADLTQLMAEEKGLSVDNTAFEEARRKAIETSSAGTGKFRDTLDLDVHALAELQQKGVPTTDDSPKYAYTFTGEGSDAVYKFEPCVGKILAIRRDGKFVDQLAAGEEGAILLDRTNFYAEQGGQIYDVGVLTKVNDESNEFNVSNCQVRGGYIVLVGSAEGSFSVGDQVNERFDEDRKQLIMKNHTGTHVLNYALRKVLADSDQKGSLVAPDRMRFDFTNKAGMTVQQVKKAEEYAQQLIDTKGQVYAKNSPLGEAKKVKGLRAMFDETYPDPVRVVAVGTPVEQLLQNPDAEEGQNTTVEFCGGTHLQNVSHIGRIVIASEEAIAKGIRRIVALTGPEAER	not soluble
MQKPSIPKGMRDFSPVEMSRRNYIFDTIREVYELFGFNQIETPTMEMLSTLMGKYGEEGDRLLFKVLNSGDVLADFCAEELAEKNSLRFAAKACEKGLRYDLTVPFARYVVMHRNEINFPFKRYQIQPVWRADRPQKGRYREFYQCDGDVIGSDSLMNEVELIQIISEVFRRLGIRTRILLNNRKILSGIAEVVDEADRLTDITVAIDKLDKIGLDKVNDELRTKGFGEEAIERLRPFIEMKGDNREKLDRLKSALASSETGLKGIEELTYILDKVERVQLHSELMVDISLARGLSYYTGAILEVKALDAEMGSITGGGRYDNLTGIFGLEGMSGVGISFGADRIYDVMMQLDLFPAEKLTGTQLLFVNFSEEDADSLLPLIQKLREQGLRTELYPEPAKIKKQMSYANAANIPYVALVGENERAAGQVNLKNMLTGEQQMLPADAATIVAAIV	not soluble
RLSDVLSADVYQQAHSPLSLALGVDIGGHPMVVDLAKMPHLLVAGTTGSGKSVGINAMILSILFKASPEQVRLIMVDPKMLELSVYDGIPHLLTPVVTDMKEAASALRWCVEEMERRYRLMAALGVRNLAGYNTKITEAAANGQPLLNPLWKPVDSMDETAPELQALPYVVVVIDELADMMMVVGKKVEQLIARIAQKARAAGIHMILATQRPSV	not soluble
MGSDKIHHHHHHANNDEWVTCPPGGILAIGTMKIPNADTPRDFFIALDNGDNVLPADTADIRNRKYTVAEGQRVFVGYLQMGKEKPGYENGKIFTIEDILTKEIIPLTEATADSIGDDRINVTAHALTKDYLTIEYQYLGSMNENKKHMLNLVQNEITGPIKDDGYIYLEFRHNAFNDSPNQLGSSLVSFKLDSIAEQLATAKGIKLRVNTIYDNIQYVTIDINEDKNLKIKSFHSQ	not soluble
MSLGIKVVLLEKAHEIGEIGAGIQLGPNAFSALDSLGVGEVARQRAVFTDHITMMDAVNAEEVVCIETGQAFRDHFGGPYAVIHRVDIHASVWEAVLTHPDVEYHTSTNVVDIRETEDDVTVFDDRGNSWTGDILIGCDGVKSVVRQSLLGDAPRVTGHVVYRAVIDRADMPEDLRINAPVLWAGPHCHLVHYPLRGGKQYNLVVTFHSRQQEEWGVKDGSKEEVLSYFEGIHPRPRQMLDKPTSWRRWSTADREPVAKWGTKRITLVGDSAHPVAQYMAQGACMALEDAVTLGKALAQCEGDAAQAFALYESVRIPRTARIVWSTREMGRVYHAAGVERQVRNLLWKGKSQAEFYRGMEWLYGWKEDNCLQPREGHHHHHH	not soluble
